Assay results reported in the supplement of paper PMC10567573.

B1: KCNA3 (parent)
chain: YQSGGRIRRPVNVPIDIFSEEIRF

Variants of: B1
Assay: protein stability index of a GFP-peptide fusion (GPS, HEK-293T) (PSI 1-6); higher = more stable
Conditions: c terminus: a fixed tail appended
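Also: lentivirally expressed fusions sorted by FACS into six bins by GFP to DsRed ratio, PSI derived from sequencing read proportions per bin multiplied by bin number.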

Protein stability index of substitutions, site by site:
P14: Q 3.61 | C 1.33 | I 2.88 | L 2.85 | G 1.9 | K 1.78 | T 1.81 | E 1.43 | H 2.02 | S 1.42 | F 1.07 | V 1.61 | W 2.98 | D 1.85 | M 3.25 | A 1.81
S19: K 1.54 | E 1.87 | D 2.43 | H 1.49 | F 1.51 | G 2.52 | A 1.83 | I 1.85 | L 1.41 | C 1.39
D16: Q 2.61 | T 2.51 | W 1.87 | N 2.01 | K 1.8 | S 2.42 | P 2.34 | A 3.22 | H 1.84 | R 1.64 | L 1.88 | V 1.19 | Y 1.39 | G 1.73 | I 2.51 | C 1.41 | M 1.73 | F 1.33
P10: M 1.62 | Q 1.53 | W 2.7 | T 2.83 | I 1.78 | N 1.64 | L 1.6 | V 1.91 | S 2.43 | R 1.64 | Y 1.76 | K 1.33
N12: G 1.83 | E 1.8 | W 2.21 | R 1.28 | S 2.63 | F 1.35 | K 1.91 | M 2.26 | L 1.4 | Q 2.34 | T 2.17 | P 2.11 | I 1.93 | Y 1.08 | C 2.62 | A 1.8 | D 1.8 | V 1.41 | H 3.14
I17: R 2.48 | E 3.04 | N 2.74 | Q 1.89 | C 2.48 | Y 2.79 | D 2.34 | S 2.33
